The text below walks through data of patent publication US20220348635A1, “COMPOSITIONS AND METHODS FOR NEUROLOGICAL DISEASES” (Coda Biotherapeutics, Inc., priority 2019, published 2022).

Common to all, as to format: cell-based
A short description of test [1]: YFP quench plate reader assay, response to AZD-0328. Particulars: LX293T YFP reporter cells. An outline of the steps: (§1)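 Transiently transfected LX293T YFP-reporter cells; 30 min 37° C in 1×ECS (pH 7.2). Baseline 17 sec, ligand added (2× stock in ECS-NaI), fluorescence every 1.3 sec over 2 min. Dose-dependent % quench; […].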
Test [2] is described as follows: Evoked action potentials in transduced rat DRG neurons, RG-3487. The note with it: RG-3487 (SA-2) at 3 μM. The method, then:
Using whole cell manual patch clamp electrophysiology in HEK293 cells and rat DRG neurons, the EC50 of the various engineered receptors disclosed herein to Ach and non-native ligands was measured. The rheobase shift was also measured in rat DRG neurons, which reflects the efficacy of the receptors. To calculate the rheobase, first, the amount of current that can produce an action potential was determined. Then the ligand was added, followed by a step wise increase in the current injected up to 700 pA. The current injected after addition of the ligand was divided by, the original current injected to obtain an action potential, to calculate the rheobase. The EC50 was calculated using the Hill equation with peak current measurements from escalating doses of ligand.
Acetylcholine at 3.0 mM had no effect on evoked action potentials in transduced neurons (n=4) (FIG. 4B).

The nature of test [3]: YFP quench plate reader assay, response to acetylcholine. Particulars: LX293T YFP reporter cells. An outline of the steps: as §1
Test [4] is described as follows: High throughput electrophysiology in HEK293T cells, RG-3487. The method, then: To confirm the EC50s determined by plate reader as well as develop a better understanding of maximum current flow, the engineered receptors were subjected to high throughput electrophysiology system, as described below. For HEK293T studies, cDNAs encoding ion channels were cloned into pcDNA3.1 using standard recombination techniques. HEK293T cells from Clontech (Lenti-X™ 293T Cell Line) were cultured in DMEM supplemented with 10% FBS and 1% Pen/Strep to 40-50% confluence using standard cell culture protocols, transfected with ion channel plasmids at a concentration of 18 μg per 15 cm dish using Fugene 6, and grown for an additional 24 hours. Cells were then assayed on a electrophysiological system (IonFluxHT and/or Mercury, Fluxion Biosciences) in which dose-response relationships may be assessed through a microfluidics-based platform for establishing whole cell configurations. […] Data were then analyzed off-line using custom Python scripts to convert data to .csv format, re-plot traces, and apply QC measurements to reject unstable recordings (i.e. thresholding based on access resistance and/or standard deviation in baseline, as well as artifact rejection). Peak currents were then calculated and population data were fit using a 4-parameter logistic equation as described by the Hill Equation. […]

B1: Y115D, L131Q in SEQ ID NO: 33: CR-11 (Chemogenic receptor-11): SEQ ID NO: 33 with substitutions Y115D and L131Q (protein)
chain: MRCSPGGVWLALAASLLHVSLQGEFQRKLYKELVKNYNPLERPVANDSQPLTVYFSLSLLQIMDVDEKNQVLTTNIWLQMSWTDHYLQWNVSEYPGVKTVRFPDGQIWKPDILLDNSADERFDATFHTNVQVNSSGHCQYLPPGIFKSSCPMDLKNFPMDVQTCKLKFGSWSYGGWSLDLQMQEADISGYIPNGEWDLVGIPGKRSERFYECCKEPYPDVTFTVTMRRRMGYYLIQMYIPSLLIVILSWISFWINMDAAPARVGLGITTVLTMTTQSSGSRASLPKVSYVKAIDIWMAVCLLFVFSALLEYAAVNFVSRQHKELLRFRRKRRHHKSPMLNLFQEDEAGEGRFNFSAYGMGPACLQAKDGISVKGANNSNTTNPPPAPSKSPEEMRKLFIQRAKKIDKISRIGFPMAFLIFNMFYWIIYKIVRREDVHNQ
modifications: synthetic sequence of chimeric LGIC
Turning to B1, the “percent quench of YFP fluorescence, 100 nM azd” value in test [1] (100 nM AZD-0328) amounted to 12.15%. Besides, in test [1] (300 nM AZD-0328), the “percent quench of YFP fluorescence, 300 nM azd” value was found to be 30.92%. For the same molecule, the “percent quench of YFP fluorescence, 30 uM azd” value in test [1] (30 uM AZD-0328) stood at 68.65%. Besides, the “effect on current injection evoked action potentials” value in test [2] is “reversibly inhibits”. The “increase in the current required to elicit action potentials” value in test [2] (n=7) was around 3 ×. Besides, the “percent quench of YFP fluorescence, 10 uM ach” value in test [3] (10 uM acetylcholine) amounted to 9.47%. Also, the “percent quench of YFP fluorescence, 100 uM ach” value in test [3] (100 uM acetylcholine) is recorded as 6.12%. Also, the “percent quench of YFP fluorescence, 1 mM ach” value in test [3] (1 mM acetylcholine) is recorded as −1.56%. In addition, in test [3] (3 mM acetylcholine), the “percent quench of YFP fluorescence, 3 mM ach” value is 17.57%. Also, the “fold increased potency to RG-3487 compared to wild type receptor” value in test [4] is recorded as “over 10 fold”.
